From patent publication US6797467B1, “Compositions and methods for determining interactions of mitochondrial components, and for identifying agents that alter such interactions” (MitoKor, Inc., priority 1999, dated 2004) come the findings set out here.

Data set [1] addresses T1, CypD rotamase activity (Homo sapiens, UniProt P30405).
T1 construct: made in house; host or cells: E. coli (pMK12-GST-huCypD)
Briefly: Rotamase (peptidylprolyl cis-trans isomerase) solvent jump assay. To be noted: relative to reactions without added enzyme; FIG. 12, 13. It counts as biochemical. As for the experimental part:
Cyclophilin binding to ANT present in the SMP was determined using soluble recombinant GST-cyclophilin D (see Example 10, above). Rotamase (peptidylprolyl cis-trans isomerase) activity of the GST-CypD preparation was determined according to the “solvent jump” method of Kofron et al. (1991 Biochemistry 30: 6127-6134). Briefly, Ala-Ala-cis/trans-Pro-Phe-pNa was used as the rotamase substrate, coupled with α-chymotrypsin cleavage of all trans-Pro containing peptide to yield p-nitroanilide, detected by absorbance at 390 nm.

Data set [2] addresses T2, ANT/BR PLS (human ANT3 and bacteriorhodopsin) (Homo sapiens, UniProt P30405).
T2 construct: GST-huCypD: E. coli; Bacteriorhodopsin: purchased
Briefly: GST-CypD binding to proteoliposomes reconstituted with huANT3 and bacteriorhodopsin (ANT/BR PLS). To be noted: FIG. 14.
Protocol: Preformed liposomes were prepared by a freeze/thaw/sonication procedure. Briefly, egg-yolk lecithin (240 mg) was suspended in 3 ml of reconstitution buffer (50 mM NaCl, 10 mM HEPES, pH 7.4). The suspension was pulsed with argon stream to remove oxygen, partially frozen by contacting the vessel with a dry ice/ethanol bath, and sonicated as described above for SMP except the sonication period was for 1 min. The freeze/sonication step was repeated at least 3-4 times until clarification of lipid suspension was achieved.
Small EconoColumns™ (BioRad, Hercules, Calif.) were filled with 1.7 gm of SM-2 BioBeads™ (BioRad), washed with methanol followed by water, and equilibrated with the reconstitution buffer. […] Control (protein-free) liposomes were prepared in parallel by adding 0.5 ml of the elution buffer (50 mM NaCl, 1 mM EDTA, 10 mM Hepes, 1.3% Triton X-100™) to 200 μl of the liposome suspension. Each mixture was vortexed, applied to the BioBeads™ SM-2 column and passed through the column 5-6 times. Formation of proteoliposomes was visualized by apparent turbidity of the solution. Non-entrapped MUP or ATP was removed either during pelleting of the proteoliposomes by centrifugation, or by filtration of the proteoliposome suspension on a column of Sephadex™ G-50 (Pharmacia, Piscataway, N.J.).
Bacteriorhodopsin (BR) was co-reconstituted into the ANT liposomes as follows. […]

In data set [3] the target is T3, ANT present in the SMP (recombinant human ANT3) (Homo sapiens, UniProt P30405).
T3 construct: made in house; host or cells: His-huANT3: submitochondrial particles of baculovirus-infected Trichoplusia ni cells; GST-huCypD: E. coli
Briefly: GST-CypD binding to submitochondrial particles (SMP) from T. ni cells expressing His-tagged huANT3. To be noted: 2.6 μM GST-CypD, 1 mg SMP; 0 hr, 3 hr, 6 hr; FIG. 11.
Protocol: SMP preparation was according to a modification of Halestrap et al. (1998 Biochim. Biophys. Acta 1366:79-94), and all steps were performed at 4° C. Starting material was one liter of cell culture, corresponding to 1×10^9 T. ni cells. Cells were pelleted by centrifugation and stored frozen at −20° C. For isolation of mitochondria, the cell pellet was thawed and resuspended in 15 ml of mitochondrial isolation buffer (MIB, all reagents from Sigma, St. Louis, Mo., unless otherwise noted): 0.22 M mannitol, 70 mM sucrose, 10 mM Hepes, 0.2 mM EDTA, 0.2 mM 2-mercaptoethanol (2-ME), pH 7.2 plus a standard protease inhibitor cocktail (Roche Molecular Biochemicals, Indianapolis, Ind.). The suspension was subjected to two freeze-thaw cycles by shell-freezing the container in a dry ice/ETOH bath and then thawing the suspension at room temperature, and was then diluted with 20 ml of MIB. The suspension was next homogenized with 10 strokes in a Potter-Elvehjem homogenizer (rheostat setting 28). The resulting homogenate was further diluted with MIB to a volume of approximately 200 ml and centrifuged at 600×g at 4° C. for 10 min. […] Protein concentration was measured using the Pierce BCA (Pierce Chemical Co., Rockford, Ill.) according to the manufacturer's instructions. […]

Data set [4] concerns the target T4, His-tagged huANT3 : CypD-GST interaction (Homo sapiens, UniProt P30405).
T4 construct: made in house; host or cells: His-huANT3: Trichoplusia ni cells infected with baculovirus (pMK4B-huANT3); GST-huCypD: E. coli (pMK12-GST-huCypD)
Briefly: Nickel bead immunoassay of huANT3:huCypD interaction (Western, anti-GST). It counts as binding.
Protocol: Each portion was suspended in 1 ml of MSB with protease inhibitors (leupeptin, final concentration 10 ug/ml; pepstatin, final concentration 10 ug/ml; aprotinin, final concentration, 2 ug/ml; phenylmethylsulfonyl fluoride {PMSF}, final concentration, 100 μM; all from Sigma Chemical Co., St Louis, Mo.). The resuspended cell suspensions were frozen and thawed twice, then homogenized using a rotating teflon-coated probe and a close-fitting glass container (10 passes). The cellular homogenate was centrifuged (3,700 rpm, approximately 1,500×g) at 4° C. for 5 minutes; this supernatant from the first spin was saved. The pellet was washed with about 500 μl of MSB with protease inhibitors, centrifuged (3,800 rpm, approximately 1,600×g) at 4° C. for 5 minutes, and supernatant from this spin was combined with the supernatant from the first spin. The combined supernatant was centrifuged (14,000 rpm, approximately 20,800×g) at 4° C. for 15 minutes, and the pellet was resuspended in 300 μl of a 1:1 solution of (a) 20 mM MOPS and (b) MSB, wherein both (a) and (b) contain the previously described protease inhibitors. The resultant suspension was frozen and thawed three times.
One hundred (100) μl of T. ni mitochondria (9.83 μg/ml) was thawed slowly on ice and then centrifuged at 4° C. for 15 minutes to pellet mitochondria. […]
The extracts were evaluated by Western analysis. […]

T1 sequence (P30405 30-207): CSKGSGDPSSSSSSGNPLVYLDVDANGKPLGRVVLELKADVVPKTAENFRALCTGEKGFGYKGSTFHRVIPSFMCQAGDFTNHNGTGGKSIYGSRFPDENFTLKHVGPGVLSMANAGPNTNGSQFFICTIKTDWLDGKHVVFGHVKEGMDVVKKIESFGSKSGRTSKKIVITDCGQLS
T4 sequence (P30405 30-207): as above
T3 sequence (P30405 30-207): as above
T2 sequence (P30405 30-207): as above

With “Ek-CypD: CypD liberated from the polyHis fusion tag following enterokinase cleavage”, the rotamase activity entry in data set [1] is given as “rotamase activity was also demonstrated”.
For “GST-CypD: recombinant glutathione S-transferase-human cyclophilin D fusion protein expressed from pMK12-GST-huCypD”, the “binding of GST-CypD to ANT/BR PLS” value in data set [2] was “readily apparent”. For the same substance, the “GST-CypD in SMP pellet fractions” value in data set [3] was “readily detectable”. Also, the rotamase activity result in data set [1] is given as “readily apparent rotamase activity”. The “amount of CypD-GST retained on beads” value in data set [4] (His-tagged huANT3 present (lanes 2', 3') versus absent (lane 1')) is recorded as “visibly increased by roughly an order of magnitude”. In data set [4] (summary statement), the “binding of CypD-GST to His-tagged ANT3 on a solid support” value is reported as “specifically binds”.
As to “His-CypD: recombinant polyHis-tagged human CypD fusion protein, purified on nickel columns or by FPLC”, in data set [1], the rotamase activity result is “rotamase activity was also demonstrated”.
